We go through 8 sequences from the supplement of paper PMC11246515.

A short description of the data set: total protein half-life in vivo (active degradation + dilution); higher = more stable protein.
Where [1] appears, read: E. coli NCM3722 delta-clpP delta-lon delta-hslV, growth: N-lim chemostat, doubling time 6 h.
Where [2] appears, read: E. coli NCM3722 delta-clpP, growth: N-lim chemostat, doubling time 6 h.
[3] abbreviates: E. coli NCM3722 delta-hslV, growth: N-lim chemostat, doubling time 6 h.
Setting [4] is: E. coli NCM3722 delta-smpB, growth: N-lim chemostat, doubling time 6 h.
Setting [5] is: wild type E. coli NCM3722, growth: C-lim chemostat, doubling time 3 h.
[6] abbreviates: wild type E. coli NCM3722, growth: C-lim chemostat, doubling time 6 h.
Where [7] appears, read: wild type E. coli NCM3722, growth: N-lim chemostat, doubling time 6 h.
[8] abbreviates: wild type E. coli NCM3722, growth: N-lim chemostat, doubling time 12 h.
Where [9] appears, read: E. coli NCM3722 delta-lon, growth: N-lim chemostat, doubling time 6 h.
[10] abbreviates: wild type E. coli NCM3722, growth: C-lim chemostat, doubling time 12 h.
Where [11] appears, read: wild type E. coli NCM3722, growth: P-lim chemostat, doubling time 6 h.
Where [12] appears, read: wild type E. coli NCM3722, growth: P-lim chemostat, doubling time 12 h.

± gives the standard deviation of the averaged measurements.

Consider “MTITDLVLILFIAALLAFAIYDQFIMPRRNGPTLLAIPLLRRGRIDSVIFVGLIVILIYNNVTNHGALITTWLLSALALMGFYIFWIRVPKIIFKQKGFFFANVWIEYSRIKAMNLSEDGVLVMQLEQRRLLIRVRNIDDLEKIYKLLVSTQ”, for which the “total protein half-life in vivo” value is 7.14 h under setting [1]; 7.25 h under setting [2]; 6.58 h under setting [3]; 6.13 ± 0.82 h under setting [4]; 2.77 ± 0.15 h under setting [5]; 4.79 h under setting [6]. Moreover, the “total protein half-life in vivo” value under setting [7] amounted to 5.6 h and the “total protein half-life in vivo” value under setting [8] stood at 8.94 h.
On to “MIRLAPLITADVDTTTLPGGKASDAAQDFLALLSEALAGETTTDKAAPQLLVATDKPTTKGEPLISDIVSDAQQANLLIPVDETPPVINDEQSTSTPLTTAQTMALAAVADKNTTKDEKADDLNEDVTASLSALFAMLPGFDNTPKVTDAPSTVLPTEKPTLFTKLTSEQLTTAQPDDAPGTPAQPLTPLVAEAQSKAEVISTPSPVTAAASPLITPHQTQPLPTVAAPVLSAPLGSHEWQQSLSQHISLFTRQGQQSAELRLHPQDLGEVQISLKVDDNQAQIQMVSPHQHVRAALEAALPVLRTQLAESGIQLGQSNISGESFSGQQQAASQQQQSQRTANHEPLAGEDDDTLPVPVSLQGRVTGNSGVDIFA”, for which the “total protein half-life in vivo” value is, setting by setting: under setting [1], 2.6 h; under setting [5], 0.287 h; under setting [6], 0.34 h.
With “MKKQRNLRSMAAQAVEQVVEQGQSLSNILPPLQQKVSDKDKALLQELCFGVLRTLSQLDWLINKLMARPMTGKQRTVHYLIMVGLYQLLYTRIPPHAALAETVEGAIAIKRPQLKGLINGVLRQFQRQQEELLAEFNASDARYLHPSWLLKRLQKAYPEQWQSIVEANNQRPPMWLRINRTHHSRDSWLALLDEAGMKGFPHADYPDAVRLETPAPVHALPGFEDGWVTVQDASAQGCMTWLAPQNGEHILDLCAAPGGKTTHILEVAPEAQVVAVDIDEQRLSRVYDNLKRLGMKATVKQGDGRYPSQWCGEQQFDRILLDAPCSATGVIRRHPDIKWLRRDRDIPELAQLQSEILDAIWPHLKTGGTLVYATCSVLPEENSLQIKAFLQRTADAELCETGTPEQPGKQNLPGAEEGDGFFYAKLIKK”, the “total protein half-life in vivo” value is, setting by setting: under setting [1], 5.88 ± 1 h; under setting [2], 5.642 ± 0.039 h; under setting [3], 5.05 ± 1.1 h; under setting [9], 5.17 ± 0.74 h; under setting [4], 4.92 ± 0.25 h; under setting [5], 2.88 ± 0.45 h. Further, the “total protein half-life in vivo” value came out at 6.66 ± 1.9 h under setting [6]; 12.4 ± 0.73 h under setting [10]; 6.14 ± 0.58 h under setting [7]; 10.9 ± 0.76 h under setting [8]; 6.96 ± 0.51 h under setting [11]; 12.7 ± 0.89 h under setting [12].
With “MFTGSIVAIVTPMDEKGNVCRASLKKLIDYHVASGTSAIVSVGTTGESATLNHDEHADVVMMTLDLADGRIPVIAGTGANATAEAISLTQRFNDSGIVGCLTVTPYYNRPSQEGLYQHFKAIAEHTDLPQILYNVPSRTGCDLLPETVGRLAKVKNIIGIKEATGNLTRVNQIKELVSDDFVLLSGDDASALDFMQLGGHGVISVTANVAARDMAQMCKLAAEGHFAEARVINQRLMPLHNKLFVEPNPIPVKWACKELGLVATDTLRLPMTPITDSGRETVRAALKHAGLL [P0A6L2]”, the “total protein half-life in vivo” value under setting [1] came to 4.22 ± 0.18 h; the “total protein half-life in vivo” value under setting [2] is 3.67 ± 0.84 h; the “total protein half-life in vivo” value under setting [3] amounted to 3.03 ± 0.44 h; the “total protein half-life in vivo” value under setting [9] came to 4.05 ± 0.09 h; the “total protein half-life in vivo” value under setting [4] was determined as 3.42 ± 0.18 h; the “total protein half-life in vivo” value under setting [5] stood at 3.09 ± 0.099 h. Besides, the “total protein half-life in vivo” value stood at 5.47 ± 0.57 h under setting [6]; 11.4 ± 0.21 h under setting [10]; 3.43 ± 0.14 h under setting [7]; 5.28 ± 0.1 h under setting [8]; 5.72 ± 0.24 h under setting [11]; 11.1 ± 0.94 h under setting [12].
“MSEQLVTPENVTTKDGKINLLDLNRQQMREFFKDLGEKPFRADQVMKWMYHYCCDNFDEMTDINKVLRGKLKEVAEIRAPEVVEEQRSSDGTIKWAIAVGDQRVETVYIPEDDRATLCVSSQVGCALECKFCSTAQQGFNRNLRVSEIIGQVWRAAKIVGAAKVTGQRPITNVVMMGMGEPLLNLNNVVPAMEIMLDDFGFGLSKRRVTLSTSGVVPALDKLGDMIDVALAISLHAPNDEIRDEIVPINKKYNIETFLAAVRRYLEKSNANQGRVTIEYVMLDHVNDGTEHAHQLAELLKDTPCKINLIPWNPFPGAPYGRSSNSRIDRFSKVLMSYGFTTIVRKTRGDDIDAACGQLAGDVIDRTKRTLRKRMQGEAIDIKAV”: the “total protein half-life in vivo” value turned out to be 4.37 ± 0.19 h under setting [1]; 2.76 ± 0.77 h under setting [2]; 1.13 ± 0.07 h under setting [3]; 1.57 ± 0.14 h under setting [9]; 1.15 ± 0.025 h under setting [4]; 1.35 ± 0.022 h under setting [5]. The “total protein half-life in vivo” value under setting [6] stood at 1.89 ± 0.12 h; the “total protein half-life in vivo” value under setting [10] came out at 2.442 ± 0.024 h; the “total protein half-life in vivo” value under setting [7] amounted to 1.31 ± 0.027 h; the “total protein half-life in vivo” value under setting [8] came to 1.88 ± 0.24 h; the “total protein half-life in vivo” value under setting [11] worked out at 1.78 ± 0.32 h; the “total protein half-life in vivo” value under setting [12] was determined as 2.3 ± 0.26 h.
Turning to “MTRPVTLSEPHFSQHTLNKYASLMAQGNGYLGLRASHEEDYTRQTRGMYLAGLYHRAGKGEINELVNLPDVVGMEIAINGEVFSLSHEAWQRELDFASGELRRNVVWRTSNGSGYTIASRRFVSADQLPLIALEITITPLDADASVLISTGIDATQTNHGRQHLDETQVRVFGQHLMQGSYTTQDGRSDVAISCCCKVSGDVQQCYTAKERRLLQHTSAQLHAGETMTLQKLVWIDWRDDRQAALDEWGSASLRQLEMCAQQSYDQLLAASTENWRQWWQKRRITVNGGEAHDQQALDYALYHLRIMTPAHDERSSIAAKGLTGEGYKGHVFWDTEVFLLPFHLFSDPTVARSLLRYRWHNLPGAQEKARRNGWQGALFPWESARSGEEETPEFAAINIRTGLRQKVASAQAEHHLVADIAWAVIQYWQTTGDESFIAHEGMALLLETAKFWISRAVRVNDRLEIHDVIGPDEYTEHVNNNAYTSYMARYNVQQALNIARQFGCSDDAFIHRAEMFLKELWMPEIQPDGVLPQDDSFMAKPAINLAKYKAAAGKQTILLDYSRAEVNEMQILKQADVVMLNYMLPEQFSAASCLANLQFYEPRTIHDSSLSKAIHGIVAARCGLLTQSYQFWREGTEIDLGADPHSCDDGIHAAATGAIWLGAIQGFAGVSVRDGELHLNPALPEQWQQLSFPLFWQGCELQVTLDAQRIAIRTSAPVSLRLNGQLITVAEESVFCLGDFILPFNGTATKHQEDE”, the “total protein half-life in vivo” value under setting [1] is 5.63 h.
With “MAIILGIDPGSRVTGYGVIRQVGRQLSYLGSGCIRTKVDDLPSRLKLIYAGVTEIITQFQPDYFAIEQVFMAKNADSALKLGQARGVAIVAAVNQELPVFEYAARQVKQTVVGIGSAEKSQVQHMVRTLLKLPANPQADAADALAIAITHCHVSQNAMQMSESRLNLARGRLR [P0A814]”, the “total protein half-life in vivo” value stood at 4.93 ± 0.29 h under setting [1]; 3.57 ± 0.066 h under setting [2]; 3.29 ± 0.05 h under setting [3]; 3.46 ± 0.7 h under setting [9]; 4.18 ± 1.7 h under setting [4]; 2.26 ± 0.1 h under setting [5]. Further, the “total protein half-life in vivo” value by setting is: under setting [6], 4.34 ± 0.17 h; under setting [10], 6.6 ± 0.2 h; under setting [7], 3.56 ± 0.17 h; under setting [8], 5.21 ± 0.39 h; under setting [12], 6.3836 ± 0.0059 h.
For “MDSFPAIEIDKVKAWDFRLANINTSECLNVAYGVDANYLDGVGVSITSIVLNNRHINLDFYIIADVYNDGFFQKIAKLAEQNQLRITLYRINTDKLQCLPCTQVWSRAMYFRLFAFQLLGLTLDRLLYLDADVVCKGDISQLLHLGLNGAVAAVVKDVEPMQEKAVSRLSDPELLGQYFNSGVVYLDLKKWADAKLTEKALSILMSKDNVYKYPDQDVMNVLLKGMTLFLPREYNTIYTIKSELKDKTHQNYKKLITESTLLIHYTGATKPWHKWAIYPSVKYYKIALENSPWKDDSPRDAKSIIEFKKRYKHLLVQHHYISGIIAGVCYLCRKYYRK”, the “total protein half-life in vivo” value is, setting by setting: under setting [1], 5.91 ± 0.13 h; under setting [2], 5.65 ± 0.22 h; under setting [3], 5.85 ± 1.1 h; under setting [9], 4.71 ± 0.095 h; under setting [4], 5.17 ± 0.11 h; under setting [5], 2.93 ± 0.14 h. Besides, the “total protein half-life in vivo” value reads like this: under setting [6], 5.19 ± 0.48 h; under setting [10], 9.31 ± 1.8 h; under setting [7], 6.04 ± 1.2 h; under setting [8], 10.3 ± 2.3 h; under setting [11], 5.29 ± 0.38 h; under setting [12], 9.86 ± 0.11 h.
